pIC50: −log10 of the molar value.
Tests used:
[1] = target: neonatal Fc receptor (FcRn), endogenous in U937 cells (human) (UniProt P55899); assay: FcRn occupancy, FACS, U937 cells, with albumin
[2] = target: FcRn (cells of the occupancy assay not stated) (UniProt P55899); assay: FcRn occupancy assay, cells not given
[3] = target: FcRn-L322A/L323A expressed in HEK293 cells (human) (UniProt P55899); assay: FcRn occupancy, FACS, HEK293-FcRn-mut cells, with albumin
[4] = target: neonatal Fc receptor (FcRn), endogenous in U937 cells (human) (UniProt P55899); assay: cell-based FcRn occupancy assay on U937 cells, flow cytometry; free FcRn stained with anti-FcRn-Fab AF647
[5] = target: FcRn-L322A/L323A expressed in HEK293 cells (human) (UniProt P55899); assay: FcRn occupancy, FACS, HEK293-FcRn-mut cells, without albumin

Chain of neonatal Fc receptor (FcRn), endogenous in U937 cells (human) (P55899 24-365 limits assumed, chain 1 of 2): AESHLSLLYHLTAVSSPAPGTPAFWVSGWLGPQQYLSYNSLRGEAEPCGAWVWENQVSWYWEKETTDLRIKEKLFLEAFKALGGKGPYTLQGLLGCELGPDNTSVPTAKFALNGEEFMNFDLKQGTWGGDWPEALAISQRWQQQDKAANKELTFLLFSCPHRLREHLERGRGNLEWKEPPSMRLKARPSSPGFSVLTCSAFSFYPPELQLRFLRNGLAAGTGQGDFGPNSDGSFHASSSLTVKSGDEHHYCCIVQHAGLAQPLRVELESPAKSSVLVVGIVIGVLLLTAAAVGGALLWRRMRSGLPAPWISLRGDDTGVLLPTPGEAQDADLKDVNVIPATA
Chain of neonatal Fc receptor (FcRn), endogenous in U937 cells (human) (chain, as listed by the source limits assumed, chain 2 of 2): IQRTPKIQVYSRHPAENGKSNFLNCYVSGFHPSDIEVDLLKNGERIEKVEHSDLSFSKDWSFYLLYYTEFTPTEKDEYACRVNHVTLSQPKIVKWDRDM

efgartigimod showed a % max occupancy [1] of 56.8%, a pIC50 [1] of 8.32 and a pIC50 [2] of 8.22. For the same substance, the % max occupancy [3] was 57.7%, the pIC50 [3] was 7.79 and the IC50 (read off the curve) [4] was 0.3 nM. It also gave a pIC50 [5] of 8.17.

From patent US20260152573A1
